Assay results from patent US20250002588A1 (DIAGONAL THERAPEUTICS, published 2025).
Where a chain is given by its changes, count along the chain named.

B1: DGL735 (bispecific antibody)
chain 1: EVQLLESGGGLVQPGGSLRLSCAASGFTFSDYWMTWIRQAPGKGLEWVSSISGGTTYYADSRKGRFTISRDNSENTLYLQMNSLRAEDTAVYYCARDFGVSGWFGQYGMDVWGQGTLVTVSSGGGGSGGGGSGGGGSQSVLTQPPSASGTPGQRVTISCTGSSSNIGAGYDVHWYQQLPGTAPKLLIYRSNQRPSGVPDRFSGSKSGTSASLAISGLRSEDEADYYCSSYAGNYNLVFGGGTKLTVLDKTHTCPPCPAPEAAGAPSVFLFPPKPKDTLMISRTPEVTCVVVDVSHEDPEVKFNWYVDGVEVHNAKTKPREEQYNSTYRVVSVLTVLHQDWLNGKEYKCKVSNKALPAPIEKTISKAKGQPREPQVCTLPPSRDELTKNQVSLSCAVKGFYPSDIAVEWESNGQPENNYKTTPPVLDSDGSFFLVSKLTVDKSRWQQGNVFSCSVMHEALHNHYTQKSLSLSPGWSHPQFEK
chain 2: not shown
B2: DGL863 (bispecific antibody)
chain 1: not shown
chain 2: B1 chain 1 with Y32S, W33Y, T35S, T55S, R62V, S101A, W103Y
B3: DGL868 (bispecific antibody)
chain 1: not shown
chain 2: B1 chain 1 with W33Y, T35N, T55S, R62V, S101A, Q106Y
B4: DGL862 (bispecific antibody)
chain 1: not shown
chain 2: B1 chain 1 with W33Y, T35N, T55S, R62V, S101A, Y107F
B5: DGL864 (bispecific antibody)
chain 1: not shown
chain 2: B1 chain 1 with Y32S, W33Y, T35S, T55S, R62V, S101A, W103Y
B6: DGL860 (bispecific antibody)
chain 1: not shown
chain 2: B1 chain 1 with W33Y, T35N, T55S, R62V, S101A, Y107F
B7: DGL861 (bispecific antibody)
chain 1: not shown
chain 2: B1 chain 1 with W33Y, T35N, T55S, R62V, S101A, Y107F
B8: DGL867 (bispecific antibody)
chain 1: not shown
chain 2: B1 chain 1 with W33Y, T35N, T55S, R62V, S101A, Q106Y
B9: DGL866 (bispecific antibody)
chain 1: not shown
chain 2: B1 chain 1 with W33Y, T35N, T55S, R62V, S101A, Q106Y
B10: DGL865 (bispecific antibody)
chain 1: not shown
chain 2: B1 chain 1 with Y32S, W33Y, T35S, T55S, R62V, S101A, W103Y
B11: DGL631 (bispecific antibody)
chain 1: not shown
chain 2: EVQLLESGGGLVQPGGSLRLSCAASGFTFSNAWMNWVRQAPGKGLEWVSSISSSSSYIYYADSVKGRFTISRDNSKNTLYLQMNSLRAEDTAVYYCARAVAAGGMFWGLDQWGQGTLVTVTSSGGGGSGGGGSGGGGSQSVLTQPPSASGTPGQRVTISCSGSRSNIGSNSVHWYQQLPGTAPKLLIYGNSNRPSGVPDRFSGSKSGTSASLAISGLRSEDEADYYCQSYDSSLNDHVVFGGGTKLTVLDKTHTCPPCPAPEAAGAPSVFLFPPKPKDTLMISRTPEVTCVVVDVSHEDPEVKFNWYVDGVEVHNAKTKPREEQYNSTYRVVSVLTVLHQDWLNGKEYKCKVSNKALPAPIEKTISKAKGQPREPQVCTLPPSRDELTKNQVSLSCAVKGFYPSDIAVEWESNGQPENNYKTTPPVLDSDGSFFLVSKLTVDKSRWQQGNVFSCSVMHEALHNHYTQKSLSLSPGWSHPQFEK
B12: DGL621 (bispecific antibody)
chain 1: not shown
chain 2: B11 chain 2
B13: DGL632 (bispecific antibody)
chain 1: not shown
chain 2: B11 chain 2
B14: DGL623 (bispecific antibody)
chain 1: not shown
chain 2: B11 chain 2
B15: DGL630 (bispecific antibody)
chain 1: not shown
chain 2: B11 chain 2
B16: DGL622 (bispecific antibody)
chain 1: not shown
chain 2: B11 chain 2
B17: DGL639 (bispecific antibody)
chain 1: EVQLLESGGGLVQPGGSLRLSCAASGFTFSDYYMTWIRQAPGKGLEWVSSISGGSTYYADSRKGRFTISRDNSENTLYLQMNSLRAEDTAVYYCARNVTSGGYFGSFGLDLWGQGTLVTVSSGGGGSGGGGSGGGGSQSVLTQPPSASGTPGQRVTISCTGSSSNIGAGYDVHWYQQLPGTAPKLLIYRSNQRPSGVPDRFSGSKSGTSASLAISGLRSEDEADYYCSSYAGNYNLVFGGGTKLTVLDKTHTCPPCPAPEAAGAPSVFLFPPKPKDTLMISRTPEVTCVVVDVSHEDPEVKFNWYVDGVEVHNAKTKPREEQYNSTYRVVSVLTVLHQDWLNGKEYKCKVSNKALPAPIEKTISKAKGQPREPQVCTLPPSRDELTKNQVSLSCAVKGFYPSDIAVEWESNGQPENNYKTTPPVLDSDGSFFLVSKLTVDKSRWQQGNVFSCSVMHEALHNHYTQKSLSLSPGWSHPQFEK
chain 2: not shown
B18: DGL737 (bispecific antibody)
chain 1: not shown
chain 2: B1 chain 1 with W33Y, T55S, S101A
B19: DGL736 (bispecific antibody)
chain 1: not shown
chain 2: B1 chain 1 with W33Y, T55S, S101A
B20: DGL636 (bispecific antibody)
chain 1: B17 chain 1 with N97W, V98E, G101S, Y103G, F107G, D110S, L111H
chain 2: not shown
B21: DGL637 (bispecific antibody)
chain 1: B17 chain 1 with N97L, V98T, T99V, S100D, Y103G, F104Y, F107G
chain 2: not shown
B22: DGL640 (bispecific antibody)
chain 1: B17 chain 1 with N97W, V98E, F104Y, F107G, D110T, L111I
chain 2: not shown
B23: DGL638 (bispecific antibody)
chain 1: B17 chain 1 with V98E, T99V, F104Y, S106E, D110S
chain 2: not shown

target: ALK-1/BMPR-2 receptor pair of the PathHunter U2Os dimerization cells (DiscoverX 93-0962C3) (UniProt P37023 22-503; Q13873 27-1038); experiment: cell-based or functional assay
Sequence (P37023 22-503, chain 1 of 2): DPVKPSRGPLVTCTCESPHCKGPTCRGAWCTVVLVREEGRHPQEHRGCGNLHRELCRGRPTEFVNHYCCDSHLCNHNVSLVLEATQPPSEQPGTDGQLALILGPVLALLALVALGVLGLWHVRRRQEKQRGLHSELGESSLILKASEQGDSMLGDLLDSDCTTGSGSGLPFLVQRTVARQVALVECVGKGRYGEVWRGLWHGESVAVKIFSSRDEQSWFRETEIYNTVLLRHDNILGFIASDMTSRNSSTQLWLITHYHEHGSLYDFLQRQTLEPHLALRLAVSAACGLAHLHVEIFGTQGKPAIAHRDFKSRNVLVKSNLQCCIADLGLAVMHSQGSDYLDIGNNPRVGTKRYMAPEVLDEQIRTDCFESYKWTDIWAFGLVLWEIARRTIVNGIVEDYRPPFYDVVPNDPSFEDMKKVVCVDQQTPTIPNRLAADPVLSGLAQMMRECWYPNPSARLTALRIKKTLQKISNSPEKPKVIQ
Sequence (Q13873 27-1038, chain 2 of 2): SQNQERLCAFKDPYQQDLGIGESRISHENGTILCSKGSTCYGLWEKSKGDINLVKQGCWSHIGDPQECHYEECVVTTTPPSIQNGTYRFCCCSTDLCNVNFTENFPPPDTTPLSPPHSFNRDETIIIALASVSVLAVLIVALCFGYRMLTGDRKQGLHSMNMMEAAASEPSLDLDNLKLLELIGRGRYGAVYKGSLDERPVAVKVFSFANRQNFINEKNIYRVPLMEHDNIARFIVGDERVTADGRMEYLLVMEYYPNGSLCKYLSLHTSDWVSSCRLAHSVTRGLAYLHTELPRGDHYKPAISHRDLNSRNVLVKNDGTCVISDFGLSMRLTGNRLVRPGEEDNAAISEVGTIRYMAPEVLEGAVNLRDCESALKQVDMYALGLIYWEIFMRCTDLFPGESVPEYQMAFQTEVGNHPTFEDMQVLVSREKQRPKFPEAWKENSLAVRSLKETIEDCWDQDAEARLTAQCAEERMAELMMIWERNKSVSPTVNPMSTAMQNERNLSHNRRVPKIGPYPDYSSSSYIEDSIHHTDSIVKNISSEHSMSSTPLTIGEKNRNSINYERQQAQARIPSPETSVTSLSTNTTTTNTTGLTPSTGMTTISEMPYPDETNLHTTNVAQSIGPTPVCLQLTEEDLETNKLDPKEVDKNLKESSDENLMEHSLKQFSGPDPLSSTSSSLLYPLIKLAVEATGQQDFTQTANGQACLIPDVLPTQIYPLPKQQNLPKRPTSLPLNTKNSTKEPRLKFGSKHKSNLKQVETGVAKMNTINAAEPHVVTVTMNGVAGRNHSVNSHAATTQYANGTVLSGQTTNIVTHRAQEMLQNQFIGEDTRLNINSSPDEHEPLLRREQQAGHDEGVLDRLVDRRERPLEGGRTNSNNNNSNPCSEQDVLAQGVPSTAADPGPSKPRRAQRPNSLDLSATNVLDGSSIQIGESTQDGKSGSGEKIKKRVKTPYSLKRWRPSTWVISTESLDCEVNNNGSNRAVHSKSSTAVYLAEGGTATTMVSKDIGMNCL

Going from B1 to B2, the “% Emax BMP9” value falls from 68% to 24%.

Compared with B3, B4 is higher in “% Emax BMP9” value: 67% for the first, 83% for the second.

Going from B5 to B6, the “% Emax BMP9” value rises from 22% to 79%.

Going from B7 to B8, the “% Emax BMP9” value falls from 81% to 58%.

Compared with B9, B10 is lower in “% Emax BMP9” value: 45% for the first, 30% for the second.

First: B11
Second: B12
The “% Emax BMP9” value of the first is lower: 13% for the first, 30% for the second.

Going from B13 to B14, the “% Emax BMP9” value rises from 4% to 30%.

Compared with B15, B16 is higher in “% Emax BMP9” value: 5% for the first, 25% for the second.

Going from B17 to B18, the “% Emax BMP9” value rises from 41% to 77%.

Compared with B19, B20 is lower in “% Emax BMP9” value: 73% for the first, 20% for the second.

Going from B21 to B22, the “% Emax BMP9” value rises from 21% to 83%.

With B23 the “% Emax BMP9” value was 80%.

Going from B1 to B2, the “Emax (RLU)” value falls from 1.06e+06 RLU to 604000 RLU.

Going from B3 to B4, the “Emax (RLU)” value rises from 1.71e+06 RLU to 2.13e+06 RLU.

Going from B5 to B6, the “Emax (RLU)” value rises from 553000 RLU to 2.01e+06 RLU.

Compared with B7, B8 is lower in “Emax (RLU)” value: 2.08e+06 RLU for the first, 1.48e+06 RLU for the second.

First: B9
Second: B10
The “Emax (RLU)” value of the first is higher: 1.15e+06 RLU for the first, 755000 RLU for the second.

Compared with B11, B12 is higher in “Emax (RLU)” value: 470000 RLU for the first, 1.09e+06 RLU for the second.

Compared with B13, B14 is higher in “Emax (RLU)” value: 130000 RLU for the first, 1.11e+06 RLU for the second.

Going from B15 to B16, the “Emax (RLU)” value rises from 168000 RLU to 936000 RLU.

Going from B17 to B18, the “Emax (RLU)” value rises from 752000 RLU to 1.2e+06 RLU.

Compared with B19, B20 is lower in “Emax (RLU)” value: 1.13e+06 RLU for the first, 362000 RLU for the second.

Compared with B21, B22 is higher in “Emax (RLU)” value: 382000 RLU for the first, 1.53e+06 RLU for the second.

For B23, the “Emax (RLU)” value was 1.47e+06 RLU.

target: human ALK1 protein (Sino Biological, #10066-H08H) (human, UniProt P37023 22-118); experiment: ELISA, coated human ALK1
Sequence (P37023 22-118 limits assumed): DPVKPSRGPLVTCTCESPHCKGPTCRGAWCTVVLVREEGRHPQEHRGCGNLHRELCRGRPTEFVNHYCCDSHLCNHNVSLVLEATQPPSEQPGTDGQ
Description: These binders were then tested using an ELISA assay. High binding plates (Corning, 9018) were coated with either 2 μg/ml of human BMPRII protein (Sino Biological, #10551-H08H) or 2 μg/ml of human ALK1 protein (Sino Biological, #10066-H08H) overnight at 4C. The plates were then washed three times with wash buffer (R&D Systems, WA126). […] The plates were then washed three times with wash buffer and DGL antibodies or controls, which were diluted with PBS and 0.1% BSA. The antibodies were incubated for one hour at room temperature and then the plates were washed three times with wash buffer. The plates were then incubated with mouse anti-human IgG Fc secondary—HRP (diluted with PBS/0.1% BSA); 100 ul per well at 2 μg/ml and incubated at room temperature for one hour. The plate was washed three times in wash buffer and then 100 ul TMB (R&D Systems, DY9998B, substrate reagent pack). After the wells turn blue, 50 ul of stop solution (R&D Systems, DY994) was added to each well and the absorbance of the plate was read at 450 nm. results can be found in Table 8.

First: B11
Second: B12
The “Abs450 1 nM” value of the first is lower: 0.07 for the first, 0.17 for the second.

First: B13
Second: B14
The “Abs450 1 nM” value of the first is lower: 0.06 for the first, 0.14 for the second.

Going from B15 to B16, the “Abs450 1 nM” value rises from 0.07 to 0.15.

Compared with B17, B20 is higher in “Abs450 1 nM” value: 0.09 for the first, 0.11 for the second.

Compared with B21, B22 is lower in “Abs450 1 nM” value: 0.16 for the first, 0.09 for the second.

For B23, the “Abs450 1 nM” value was 0.05.

Compared with B11, B12 is higher in “Abs450 10 nM” value: 0.19 for the first, 0.95 for the second.

First: B13
Second: B14
The “Abs450 10 nM” value of the first is lower: 0.05 for the first, 0.61 for the second.

Going from B15 to B16, the “Abs450 10 nM” value rises from 0.07 to 0.75.

First: B17
Second: B20
The “Abs450 10 nM” value of the first is lower: 0.46 for the first, 0.56 for the second.

First: B21
Second: B22
The “Abs450 10 nM” value of the first is higher: 0.77 for the first, 0.47 for the second.

For B23, the “Abs450 10 nM” value was 0.22.

Compared with B11, B12 is higher in “Abs450 100 nM” value: 0.7 for the first, 1.58 for the second.

Going from B13 to B14, the “Abs450 100 nM” value rises from 0.06 to 1.43.

First: B15
Second: B16
The “Abs450 100 nM” value of the first is lower: 0.08 for the first, 1.58 for the second.

Compared with B17, B20 is higher in “Abs450 100 nM” value: 1.39 for the first, 1.45 for the second.

First: B21
Second: B22
The “Abs450 100 nM” value of the first is higher: 1.48 for the first, 1.4 for the second.

B23 was tested, and the “Abs450 100 nM” value was 1.02.
